# Experimental data taken from PMC9486512 (Zoological Research, 2022).
# Ends that are not written are not given here.
# Target: human voltage-gated sodium ion channel Nav1.7 (human)
# Assay: not given
# Conditions: not given
# Chain of human voltage-gated sodium ion channel Nav1.7 (human) (Q15858 whole entry): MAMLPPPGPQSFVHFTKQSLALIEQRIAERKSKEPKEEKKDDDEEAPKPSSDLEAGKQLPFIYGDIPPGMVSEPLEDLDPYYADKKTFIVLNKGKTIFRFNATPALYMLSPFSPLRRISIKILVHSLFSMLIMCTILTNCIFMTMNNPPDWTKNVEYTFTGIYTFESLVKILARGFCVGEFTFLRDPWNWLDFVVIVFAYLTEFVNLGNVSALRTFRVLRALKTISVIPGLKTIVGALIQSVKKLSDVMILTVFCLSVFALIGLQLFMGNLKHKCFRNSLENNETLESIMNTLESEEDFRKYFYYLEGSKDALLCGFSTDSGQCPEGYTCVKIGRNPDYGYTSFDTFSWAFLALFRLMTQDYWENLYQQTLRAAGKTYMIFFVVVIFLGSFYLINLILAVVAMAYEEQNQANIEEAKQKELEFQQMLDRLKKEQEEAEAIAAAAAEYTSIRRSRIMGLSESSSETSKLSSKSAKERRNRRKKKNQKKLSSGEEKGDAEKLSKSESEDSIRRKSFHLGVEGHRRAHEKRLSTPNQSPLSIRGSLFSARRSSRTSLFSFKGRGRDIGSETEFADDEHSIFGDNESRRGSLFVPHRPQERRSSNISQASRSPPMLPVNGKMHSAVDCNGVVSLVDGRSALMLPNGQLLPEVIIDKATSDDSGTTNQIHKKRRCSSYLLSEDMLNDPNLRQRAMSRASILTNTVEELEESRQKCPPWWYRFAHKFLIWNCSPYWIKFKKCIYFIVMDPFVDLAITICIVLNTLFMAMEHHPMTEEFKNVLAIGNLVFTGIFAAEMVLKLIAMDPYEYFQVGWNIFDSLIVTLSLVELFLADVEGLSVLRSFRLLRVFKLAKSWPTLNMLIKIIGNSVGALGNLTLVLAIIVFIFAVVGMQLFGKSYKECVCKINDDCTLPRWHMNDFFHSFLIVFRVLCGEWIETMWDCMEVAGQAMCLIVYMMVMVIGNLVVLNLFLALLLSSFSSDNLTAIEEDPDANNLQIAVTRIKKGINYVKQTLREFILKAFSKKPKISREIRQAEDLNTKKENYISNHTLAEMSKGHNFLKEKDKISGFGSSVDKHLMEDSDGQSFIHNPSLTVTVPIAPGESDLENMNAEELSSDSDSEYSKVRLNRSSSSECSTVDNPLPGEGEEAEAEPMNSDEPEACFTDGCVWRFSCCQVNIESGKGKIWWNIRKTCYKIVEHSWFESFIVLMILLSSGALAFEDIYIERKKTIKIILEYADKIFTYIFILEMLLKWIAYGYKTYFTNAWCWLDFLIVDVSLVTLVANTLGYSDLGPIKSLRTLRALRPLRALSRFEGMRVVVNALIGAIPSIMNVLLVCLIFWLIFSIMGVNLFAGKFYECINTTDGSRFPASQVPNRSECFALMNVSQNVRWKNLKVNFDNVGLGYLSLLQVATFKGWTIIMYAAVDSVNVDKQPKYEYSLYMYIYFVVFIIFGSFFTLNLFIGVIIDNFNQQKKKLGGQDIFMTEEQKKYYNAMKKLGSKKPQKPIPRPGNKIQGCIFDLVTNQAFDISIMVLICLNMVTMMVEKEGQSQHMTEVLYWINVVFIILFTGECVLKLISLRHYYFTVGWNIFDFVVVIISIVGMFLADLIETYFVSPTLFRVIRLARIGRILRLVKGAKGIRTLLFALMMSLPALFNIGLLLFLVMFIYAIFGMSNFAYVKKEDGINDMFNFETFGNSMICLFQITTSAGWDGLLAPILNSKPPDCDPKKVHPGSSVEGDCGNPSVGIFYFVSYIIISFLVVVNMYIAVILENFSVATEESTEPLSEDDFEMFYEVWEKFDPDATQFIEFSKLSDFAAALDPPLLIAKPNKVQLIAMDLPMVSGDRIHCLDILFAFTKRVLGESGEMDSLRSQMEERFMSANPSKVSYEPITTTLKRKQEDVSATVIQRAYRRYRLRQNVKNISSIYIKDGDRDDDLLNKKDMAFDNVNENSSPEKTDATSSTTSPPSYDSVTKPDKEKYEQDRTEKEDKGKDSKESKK
row,Molecule,"IC50 of inhibition of hNav1.7 currents, whole-cell patch clamp, HEK293T"
1,CLGFGEKCNNDKCCKSLVCQKHKWCKY [truncated peptide T3 (from Ca2a)],39.6 µmol/L
2,CLGFGEKCNDKCCKSSSVCSQKHKWCKY [truncated peptide T6 (from Ca2a)],> 100 µmol/L
3,CLGFGEKCCCKSSSLVCSQKHKWCKY [truncated peptide T1 (from Ca2a)],14.7 µmol/L
4,CLGFGEKCNDKCCKSSSLCSQKHKWCKY [truncated peptide T5 (from Ca2a)],> 100 µmol/L
5,CLGFGEKCPSNDKCCSSSLVCSQKHKWCKY [truncated peptide T8 (from Ca2a)],> 100 µmol/L
6,CLGFGEKCNPSKCCKSLVCQKHKWCKY [truncated peptide T2 (from Ca2a)],16.5 µmol/L
7,CLGFGEKCNDKCCKSSSCSQKHKWCKY [truncated peptide T4 (from Ca2a)],> 100 µmol/L
8,CLGFGEKCNPSNDCCKSSSLVCSQKHKWCKY [truncated peptide T9 (from Ca2a)],67.3 µmol/L
9,CLGFGEKCNPSNKCCKSSSLVCSQKHKWCKY [truncated peptide T10 (from Ca2a)],53.5 µmol/L
10,CLGFGEKCNPSDKCCKSSSLVCSQKHKWCKY [truncated peptide T11 (from Ca2a)],49.2 µmol/L
11,CLGFGEKCNPSDKCCKSSSVCSQKHKWCKY [truncated peptide T7 (from Ca2a)],> 100 µmol/L
12,CLGFGEKCNDKCCKLVCSQHKWCKY [truncated peptide T13 (from Ca2a)],8.89 µmol/L
13,CLGFGEKCNPDCCKLVCSQKWCKY [truncated peptide T12 (from Ca2a)],> 50 µmol/L

# Target: human voltage-gated sodium ion channel Nav1.7 (human)
# Assay: not given
# Conditions: not given
# Remark: another data set of the same source
row,Molecule,"IC50 of inhibition of hNav1.7 currents, whole-cell patch clamp, HEK293T"
1,ACLGFGEKCNPSNDKCCKSSSLVCSQKRKWCKYDL [Ca2a H28R],14.9 µmol/L
2,ACLGFGEKCNPSNDKCCKSSSLVCSQKHKWCKKDL [Ca2a Y33K],> 20 µmol/L
3,ACLGFGEKCNPSNDKCCKSSSLVCSQKHKKCKYDL [Ca2a W30K],> 20 µmol/L
4,ACLGFGEKCNPSNDKCCKSSSLVCSQKKKWCKYDL [Ca2a H28K],> 20 µmol/L
5,ACLGKGEKCNPSNDKCCKSSSLVCSQKHKWCKYDL [Ca2a F5K],> 20 µmol/L

# Target: human Nav1.7 (hNav1.7) channel (Homo sapiens, UniProt Q15858)
# Sequence (Q15858 whole entry): as the sequence (Q15858 whole entry) above
# Assay: Whole-cell patch-clamp inhibition of hNav1.7 currents
# Type: cell-based
# Conditions: compared to Ca2a, WT hNav1.7 in HEK293T
row,Molecule,inhibitory activity against Nav1.7 (in words)
1,K18A: K18A mutant of Ca2a (ACLGFGEKCNPSNDKCCASSSLVCSQKHKWCKYDL; ends and bridges not checked; cysteine pairing not given here) [Peptide K18A],retained most of its inhibitory activity

# Same assay, conditions: ratio of mutant IC50 to WT peptide IC50, hNav1.7 in HEK293T
row,Molecule,fold change in IC50 / affinity for Nav1.7 compared to WT Ca2a
1,W30A: W30A mutant of Ca2a (ACLGFGEKCNPSNDKCCKSSSLVCSQKHKACKYDL; ends and bridges not checked; cysteine pairing not given here) [Peptide W30A],20 fold

# Target: human voltage-gated sodium ion channel Nav1.7 (human)
# Assay: not given
# Conditions: not given
# Remark: another data set of the same source
row,Molecule,"IC50 of inhibition of hNav1.7 currents, whole-cell patch clamp, HEK293T"
1,ACLGFGEKCNPSNDKCCKSSSLVCSQAHKWCKYDL [Ca2a K27A],4.07 µmol/L
2,ACLGFGEKCNPSNDKCCKSSSLVCSQKHKWCAYDL [Ca2a K32A],> 30 µmol/L
